The labels stand for the following.
B1: AmnEΔ49–59 (enzyme, Pseudomonas sp. AP-3, UniProt Q9KWS2 1-142, looked up)
chain: MVSKADNSAKLVEGKAKPMGSFPHVKRAGDFLFVSGTSSRRPDNTFVGNIELQTREVISNIRDILQSVGADLGDVVEVCSYLVNMNDFAAYNKVYAEFFDATGPARTTVAVHQLPHPQLVIEIKVVAYKPL
notes: 2-aminomuconate deaminase AmnE, Pseudomonas sp; AP-3, as m1 with residues Ala49-Pro59 of loop Lp2 deleted; The purification, including tag cleavage, is described once for the wild type and the mutants together; Trimer by SEC; also called AmnEΔLp2 (residues Ala49–Pro59); truncated mutant AmnEΔ49–59; source: E. coli BL21 (DE3) pLysS, purified (Ni-NTA, Resource Q, Superdex 75); not shown: His6, …
B2: 2-aminomuconate deaminase (AmnE) from Pseudomonas sp. AP-3, wild type (enzyme, UniProt Q9KWS2 1-142, looked up)
chain: MVSKADNSAKLVEGKAKPMGSFPHVKRAGDFLFVSGTSSRRPDNTFVGAEPDDTGRPRPNIELQTREVISNIRDILQSVGADLGDVVEVCSYLVNMNDFAAYNKVYAEFFDATGPARTTVAVHQLPHPQLVIEIKVVAYKPL
notes: 2-aminomuconate deaminase AmnE, Pseudomonas sp; AP-3; protomer of 142 residues; Hexamer made of two trimers, by crystal structure, SEC and cross-linking; the database entry may name the gene amnD; After thrombin cleavage a few vector residues may remain at the N-terminus (surmised); also called wild-type AmnE; source: E. coli BL21 (DE3) pLysS, purified (Ni-NTA, Resource Q, Superdex 75); not …
B3: AmnE R56A (enzyme, Pseudomonas sp. AP-3, UniProt Q9KWS2 1-142, looked up)
chain: MVSKADNSAKLVEGKAKPMGSFPHVKRAGDFLFVSGTSSRRPDNTFVGAEPDDTGAPRPNIELQTREVISNIRDILQSVGADLGDVVEVCSYLVNMNDFAAYNKVYAEFFDATGPARTTVAVHQLPHPQLVIEIKVVAYKPL
notes: 2-aminomuconate deaminase AmnE, Pseudomonas sp; AP-3, as m1 with R56A; The purification, including tag cleavage, is described once for the wild type and the mutants together; Trimer by SEC; also called single mutant of AmnE R56A; source: E. coli BL21 (DE3) pLysS, purified (Ni-NTA, Resource Q, Superdex 75); not shown: His6, N-terminal, cleaved
B4: AmnE P126A (enzyme, Pseudomonas sp. AP-3, UniProt Q9KWS2 1-142, looked up)
chain: MVSKADNSAKLVEGKAKPMGSFPHVKRAGDFLFVSGTSSRRPDNTFVGAEPDDTGRPRPNIELQTREVISNIRDILQSVGADLGDVVEVCSYLVNMNDFAAYNKVYAEFFDATGPARTTVAVHQLAHPQLVIEIKVVAYKPL
notes: 2-aminomuconate deaminase AmnE, Pseudomonas sp; AP-3, as m1 with P126A; The purification, including tag cleavage, is described once for the wild type and the mutants together; Hexamer by SEC; also called mutant AmnE P126A; source: E. coli BL21 (DE3) pLysS, purified (Ni-NTA, Resource Q, Superdex 75); not shown: His6, N-terminal, cleaved

This data set deals with the molecule itself. The data set is described as follows: SEC; analytic Superdex 200 10/300 GL; 1 mg/ml; 50 mM HEPES, 150 mM NaCl, 1 mM DTT, 1 mM EDTA, 5% glycerol, pH 8.0; 0.3 ml/min, 16°C; mass calculated from the elution volume.
In general, stoichiometry N refers to a count of units in the complex or per binding partner. Turning to B1, the “stoichiometry N” value was 3. Turning to B2, the “stoichiometry N” value was 6. For the protein B3, the “stoichiometry N” value was 3. As to B4, the “stoichiometry N” value was 6.

These data come from PMC6742747, “A Unique Homo-Hexameric Structure of 2-Aminomuconate Deaminase in the Bacterium Pseudomonas species AP–3” (Frontiers in Microbiology, 2019).
